{"source": "patent US11497805B2", "about": "“Toll-like receptor 2 agonists and vaccines and uses thereof” (The Provost, Fellows, Foundation Scholars & the Other …, priority 2014, dated 2022)", "key": {"[1]": {"test_system": "C3H/HeJ mice", "experiment": "Antigenicity of BP1569: footpad immunization, lymph node cell re-stimulation", "type": "in vivo", "details": "10 μg footpad", "method": "(§1) After 3 h serum IL-12 and IL-6 concentrations were quantified by ELISA. […] After seven days the draining lymph node was harvested and cells were stimulated with BP1569 (2 μg/ml). […] After seven days the draining lymph node was harvested and cells were stimulated with total heat killed B. pertussis 1-100×10^6/ml).\nC3H/HeJ mice were injected into the footpad with BP1569 (10 μg) diluted in PBS or with PBS only. After seven days the draining lymph node was harvested and the lymph node cells were stimulated with either BP1569 (2 μg/ml) or heat killed B. pertussis pertussis (1-100×10^6/ml). After 3 days of culture, the concentration of IFN-γ in supernatants was quantified by ELISA.\nThe possibility that BP1569 was immunogenic in vivo and capable of inducing B. pertussis-specific immune responses was examined. C3H/HeJ mice were injected into the footpad with BP1569 (10 μg) diluted in PBS or with PBS only. After seven days the draining lymph node was harvested and the lymph node cells were stimulated with either BP1569 (2 μg/ml) or heat killed B. pertussis."}, "[2]": {"biological_target": "T1, TLR2 (Mus musculus, UniProt Q9EPQ1+Q9QUN7)", "T1 construct": "Bone marrow derived dendritic cells (DCs) were prepared by culturing bone marrow cells obtained from the femur and tibia of mice; endogenous in cells; host or cells: bone marrow-derived dendritic cells from C3H/HeJ mice (A3, A25) or C57BL/6 mice (A13)", "T1 sequence (Q9QUN7 25-784)": "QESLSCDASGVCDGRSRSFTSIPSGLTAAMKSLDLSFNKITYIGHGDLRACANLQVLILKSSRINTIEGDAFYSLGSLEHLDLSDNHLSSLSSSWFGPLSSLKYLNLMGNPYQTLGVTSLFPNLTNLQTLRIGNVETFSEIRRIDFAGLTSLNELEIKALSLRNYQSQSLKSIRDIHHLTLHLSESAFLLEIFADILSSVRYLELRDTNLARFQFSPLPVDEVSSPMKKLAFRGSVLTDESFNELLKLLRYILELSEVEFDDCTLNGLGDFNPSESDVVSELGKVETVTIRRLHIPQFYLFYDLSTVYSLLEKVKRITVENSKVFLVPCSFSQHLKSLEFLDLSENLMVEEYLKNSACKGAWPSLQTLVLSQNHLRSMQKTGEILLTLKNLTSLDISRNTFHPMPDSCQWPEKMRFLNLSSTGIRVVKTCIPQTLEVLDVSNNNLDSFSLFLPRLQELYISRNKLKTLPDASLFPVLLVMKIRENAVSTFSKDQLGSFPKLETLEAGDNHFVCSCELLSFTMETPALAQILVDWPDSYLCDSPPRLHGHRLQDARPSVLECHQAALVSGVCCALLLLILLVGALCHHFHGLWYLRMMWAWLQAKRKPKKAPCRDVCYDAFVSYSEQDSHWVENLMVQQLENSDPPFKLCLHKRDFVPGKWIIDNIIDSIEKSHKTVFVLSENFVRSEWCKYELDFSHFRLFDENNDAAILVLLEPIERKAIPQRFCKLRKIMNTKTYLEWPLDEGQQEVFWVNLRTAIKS", "T1 sequence (Q9EPQ1 26-795)": "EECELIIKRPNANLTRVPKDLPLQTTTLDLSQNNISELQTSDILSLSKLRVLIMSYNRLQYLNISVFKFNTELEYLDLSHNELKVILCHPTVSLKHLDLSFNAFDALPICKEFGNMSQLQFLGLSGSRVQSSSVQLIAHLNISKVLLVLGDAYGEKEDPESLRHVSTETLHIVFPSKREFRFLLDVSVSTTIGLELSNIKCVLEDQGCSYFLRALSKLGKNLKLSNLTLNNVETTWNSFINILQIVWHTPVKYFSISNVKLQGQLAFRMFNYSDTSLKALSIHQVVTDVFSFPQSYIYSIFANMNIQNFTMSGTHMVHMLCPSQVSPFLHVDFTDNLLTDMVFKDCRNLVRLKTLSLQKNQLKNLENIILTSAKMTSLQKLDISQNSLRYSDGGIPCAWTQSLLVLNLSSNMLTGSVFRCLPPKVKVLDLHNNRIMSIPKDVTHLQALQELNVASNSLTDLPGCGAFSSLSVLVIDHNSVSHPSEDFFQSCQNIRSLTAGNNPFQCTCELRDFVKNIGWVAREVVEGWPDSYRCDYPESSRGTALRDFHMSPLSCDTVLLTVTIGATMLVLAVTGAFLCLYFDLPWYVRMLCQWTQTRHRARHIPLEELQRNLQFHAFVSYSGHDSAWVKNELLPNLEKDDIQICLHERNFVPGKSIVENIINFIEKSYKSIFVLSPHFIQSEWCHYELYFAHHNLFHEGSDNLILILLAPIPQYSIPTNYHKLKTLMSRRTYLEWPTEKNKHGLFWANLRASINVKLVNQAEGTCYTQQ", "experiment": "BP1569-induced TNF-α production by DC with TLR2 blocking antibody", "type": "cell-based, mice", "details": "BP1569 100 ng/ml, 24 h, anti-TLR2 T2.5 2.5 μg/ml", "method": "(§2) Lipase-treated or untreated BP1569 (100 ng/ml) was used to stimulate BMDC from C3H/HeJ mice.\n(§3) Blocking antibodies were used against TLR2 to determine if the proteins can activate TLR2 specifically. […] Lipase treatment was used to confirm that the immunostimulatry effects of BP1569 were due the presence of the characteristic acyl side chain of the lipoprotein. The recombinant lipoprotein was incubated with two separate lipases for 18 h prior to stimulation of DC. Lipase treatment abolished BP1569-induced IL-12p40 and IL-6 production (FIG. 2E), but had no effect on cytokine production induced by the TLR9 agonist CpG (data not shown), confirming that BP1569 contains lipid side chains capable of triggering TLR2-induced inflammatory cytokine production."}, "[3]": {"biological_target": "T2, human TLR2 (Homo sapiens, UniProt O60603+Q15399)", "T2 construct": "expressed in transfected cells; host or cells: HEK 293T", "T2 sequence (O60603 21-784)": "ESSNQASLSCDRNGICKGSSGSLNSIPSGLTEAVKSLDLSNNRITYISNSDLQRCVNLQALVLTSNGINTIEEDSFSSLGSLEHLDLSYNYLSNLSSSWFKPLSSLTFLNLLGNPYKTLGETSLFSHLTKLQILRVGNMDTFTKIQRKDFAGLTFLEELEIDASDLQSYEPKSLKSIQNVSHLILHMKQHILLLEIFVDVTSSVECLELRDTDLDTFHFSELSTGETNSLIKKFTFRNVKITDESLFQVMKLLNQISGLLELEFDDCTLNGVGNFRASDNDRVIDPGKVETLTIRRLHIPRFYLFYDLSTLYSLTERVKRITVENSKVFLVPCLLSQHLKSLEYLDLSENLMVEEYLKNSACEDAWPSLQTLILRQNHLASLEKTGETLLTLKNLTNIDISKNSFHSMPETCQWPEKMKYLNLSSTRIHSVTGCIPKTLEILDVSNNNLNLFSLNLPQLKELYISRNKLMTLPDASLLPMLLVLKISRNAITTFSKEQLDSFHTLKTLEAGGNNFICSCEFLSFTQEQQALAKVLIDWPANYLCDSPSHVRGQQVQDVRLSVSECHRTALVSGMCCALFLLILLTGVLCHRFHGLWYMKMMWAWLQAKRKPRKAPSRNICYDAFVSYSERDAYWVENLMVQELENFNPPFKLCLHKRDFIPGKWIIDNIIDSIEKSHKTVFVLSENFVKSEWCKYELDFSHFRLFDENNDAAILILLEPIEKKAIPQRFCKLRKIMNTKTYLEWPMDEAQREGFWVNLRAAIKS", "T2 sequence (Q15399 25-786)": "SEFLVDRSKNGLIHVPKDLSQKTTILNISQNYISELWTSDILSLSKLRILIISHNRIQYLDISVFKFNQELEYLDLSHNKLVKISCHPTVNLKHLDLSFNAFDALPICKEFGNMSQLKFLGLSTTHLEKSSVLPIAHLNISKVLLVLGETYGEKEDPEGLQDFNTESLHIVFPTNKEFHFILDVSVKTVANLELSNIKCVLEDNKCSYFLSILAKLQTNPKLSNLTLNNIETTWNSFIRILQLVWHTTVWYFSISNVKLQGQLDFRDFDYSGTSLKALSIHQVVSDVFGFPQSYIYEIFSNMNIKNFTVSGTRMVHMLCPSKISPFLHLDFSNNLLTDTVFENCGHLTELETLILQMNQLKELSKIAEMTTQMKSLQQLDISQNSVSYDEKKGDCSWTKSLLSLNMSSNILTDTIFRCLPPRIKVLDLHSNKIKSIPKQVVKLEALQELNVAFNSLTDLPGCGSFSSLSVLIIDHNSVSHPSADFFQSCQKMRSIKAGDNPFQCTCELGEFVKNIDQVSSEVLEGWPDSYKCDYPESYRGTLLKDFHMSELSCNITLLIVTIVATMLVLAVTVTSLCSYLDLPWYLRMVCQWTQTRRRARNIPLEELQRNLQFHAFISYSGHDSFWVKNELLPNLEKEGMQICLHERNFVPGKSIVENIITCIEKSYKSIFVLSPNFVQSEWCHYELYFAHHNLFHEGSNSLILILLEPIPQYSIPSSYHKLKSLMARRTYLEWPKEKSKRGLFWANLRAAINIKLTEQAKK", "experiment": "IL-8 production by TLR2 transfected HEK 293T cells", "type": "cell-based", "details": "HEK 293T-TLR2, 24 h", "method": "(§4) Luciferase activity was quantified after 24 h. […] IL-8 production was quantified after 24 h. […] After 24 h, the concentrations of IL-6 in supernatants were determined by ELISA.\n(§5) Cytokine production by TLR2 requires activation of the transcription factors NF-κB and p38 MAP kinase. To determine if BP1569 activates NF-κB, HEK 293T cells stably expressing TLR2, but devoid of TLR4, were transfected with an NF-κB luciferase reporter construct. […] To assess activation of the MAP kinase pathway, spleen cells from C3H/HeJ mice were stimulated with BP1569. […] TLR agonists can bind to TLR1/2 or TLR2/6 heterodimers, therefore, the role of these TLRs using specific blocking antibodies to human TLR1 and TLR6 was examined."}, "[4]": {"biological_target": "T3, human TLR6 (Homo sapiens, UniProt Q9Y2C9)", "T3 construct": "endogenous in cells; host or cells: human PBMC", "T3 sequence (O60603 21-784 partner)": "as the sequence (O60603 21-784) above", "T3 sequence (Q9Y2C9 32-796)": "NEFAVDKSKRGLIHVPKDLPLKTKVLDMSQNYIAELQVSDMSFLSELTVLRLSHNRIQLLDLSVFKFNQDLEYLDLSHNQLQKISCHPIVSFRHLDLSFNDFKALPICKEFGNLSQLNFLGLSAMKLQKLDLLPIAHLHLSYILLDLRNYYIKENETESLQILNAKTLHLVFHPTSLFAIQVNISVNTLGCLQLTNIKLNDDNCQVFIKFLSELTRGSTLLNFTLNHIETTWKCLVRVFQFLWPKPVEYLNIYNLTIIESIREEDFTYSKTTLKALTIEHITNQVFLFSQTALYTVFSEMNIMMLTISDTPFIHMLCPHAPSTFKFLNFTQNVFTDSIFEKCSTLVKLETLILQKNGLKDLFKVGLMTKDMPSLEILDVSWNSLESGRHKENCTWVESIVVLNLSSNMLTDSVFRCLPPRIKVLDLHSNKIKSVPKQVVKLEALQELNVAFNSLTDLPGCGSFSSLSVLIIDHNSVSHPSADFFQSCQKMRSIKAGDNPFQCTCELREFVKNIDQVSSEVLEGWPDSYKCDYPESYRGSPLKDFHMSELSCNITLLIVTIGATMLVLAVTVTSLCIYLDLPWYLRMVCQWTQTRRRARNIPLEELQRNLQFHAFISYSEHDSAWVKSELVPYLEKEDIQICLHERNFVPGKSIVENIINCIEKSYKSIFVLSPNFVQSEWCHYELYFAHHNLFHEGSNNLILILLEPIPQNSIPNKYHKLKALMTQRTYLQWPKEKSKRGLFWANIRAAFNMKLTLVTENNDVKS", "experiment": "BP1569-induced IL-6 in human PBMC with anti-TLR6 antibody", "type": "cell-based", "details": "100 ng/ml, 24 h", "method": "as §4, §5"}, "[5]": {"biological_target": "T4, human TLR1 (Homo sapiens, UniProt O60603+Q15399)", "T4 construct": "endogenous in cells; host or cells: human PBMC", "T4 sequence (Q15399 25-786)": "as the sequence (Q15399 25-786) above", "T4 sequence (O60603 21-784)": "as the sequence (O60603 21-784) above", "experiment": "BP1569-induced IL-6 in human PBMC with TLR1 blocking antibody", "type": "cell-based", "details": "100 ng/ml, 24 h", "method": "as §4, §5"}, "[6]": {"biological_target": "T2, human TLR2", "experiment": "NF-κB luciferase reporter assay in HEK 293T cells stably expressing TLR2", "type": "cell-based", "details": "100 ng/ml, HEK 293T-TLR2, devoid of TLR4", "method": "as §4\nHEK 293T cells stably expressing human TLR2 were transfected with an NF-κB luciferase construct as described previously (21) and stimulated overnight with the indicated concentrations of BP1569.\nas §5"}, "[7]": {"test_system": "p38 MAP kinase", "experiment": "p38 phosphorylation in spleen cells (Western blot)", "type": "cell-based", "details": "spleen cells from C3H/HeJ mice", "method": "as §4\n(§6) Bone marrow derived dendritic cells (DCs) were prepared by culturing bone marrow cells obtained from the femur and tibia of mice in complete RPMI (cRPMI, RPMI containing 10% fetal calf serum, 100 U/ml penicillin, 100 μg/ml streptomycin, 2 mM 1-glutamine (Invitrogen), and 50 μM 2-ME (Sigma-Aldrich) supplemented with GM-CSF 40 ng/ml. Cells were re-cultured with fresh medium containing 40 ng/ml GM-CSF every 3 d for a period of 8 d. DC were seeded at 1×10^6 cells per ml 24 hr prior to stimulation. ELISA assays were performed using R&D kits according to the manufacturer's instructions. Spleen cells from C3H/HeJ mice were seeded at 2×10^6 cells per ml and stimulated with Pam3Cys4 (120nM) or BP1569 (120 nM) for the indicated times, with or without addition of T2.5-anti-TLR2 antibody or an isotype control (Hycult Biotech). For p38 activation assays, samples were lysed with RIPA buffer and SDS-PAGE was performed followed by Western blotting with anti-phospho-p38 and β-actin antibodies (Cell Signaling).\nCytokine production by TLR2 requires activation of the transcription factors NF-κB and p38 MAP kinase. […]"}, "[8]": {"test_system": "C3H/HeJ mice", "experiment": "Cytokine induction in vivo by BP1569 (serum ELISA)", "details": "70 μg intraperitoneally, 3 h, versus PBS controls", "method": "as §1\nC3H/HeJ mice were treated intraperitoneally with BP1569 (70 μg) or PBS control and serum cytokines were measured by ELISA after 3h.\nC3H/HeJ mice were treated intraperitoneally with BP1569 (70 μg) and serum cytokines were measured after 3 h."}, "[9]": {"test_system": "bone marrow-derived DCs from TLR4-defective C3H/HeJ mice", "experiment": "Cytokine production by bone marrow-derived DC stimulated with BP1569 (ELISA)", "type": "cell-based", "details": "BP1569 100 and 1000 ng/ml, 24 h", "method": "as §2, §6\n(§7) The present inventors examined the capacity of pertussis lipoprotein to activate innate immune cells in vitro using bone marrow-derived DCs from TLR4-defective C3H/HeJ mice. […] Furthermore, stimulation of DCs with BP1569 for 24 hours enhanced surface expression of MHC class II, CD80 and CD86 detectable by flow cytometry (FIG. 2C)."}, "[10]": {"test_system": "DC from C3H/HeJ mice", "experiment": "DC maturation: surface expression of MHC class II, CD80, CD86 by flow cytometry", "type": "cell-based", "details": "100 ng/ml, 24 hours vs medium only", "method": "as §2\nFollowing stimulation, DC were stained with CD11c (clone N418; eBioscience), MHCII (clone M5/114.15.2 ebioscience), CD80 (clone 16-10A1 eBioscience) and CD86 (clone […] eBioscience). Samples were analyzed with a FACS DIVA and FloJo software.\nas §7"}, "[11]": {"test_system": "BMDC from C3H/HeJ mice", "experiment": "Lipase treatment of lipoprotein before stimulation of DC", "type": "cell-based", "details": "lipase from Aspergillus or Pseudomonas, 18 h", "method": "as §2, §3"}, "[12]": {"test_system": "TLR2", "experiment": "BP2992 activity as TLR2 ligand (data not shown)", "excerpt": "C-terminal histidine versions of the putative lipoproteins were constructed and expressed in E. coli by IPTG induction. BP1569 and BP2992 were successfully expressed and purified by nickel affinity followed by ion-exchange chromatography. […] Therefore, the inventors adopted a strategy of carrying out all initial studies with lipoproteins in TLR4 defective cells or mice and then synthesized lipopeptide versions of the lipoproteins for more thorough immunological analysis."}, "[13]": {"test_system": "dendritic cells from C3H/HeJ mice", "experiment": "BP2992 maturation and cytokine production by dendritic cells", "type": "cell-based", "details": "24 h", "method": "Lane 1: 5 ng BP2992; lane 2: 10 ng BP2992."}, "[14]": {"test_system": "human peripheral blood mononuclear cells (PBMC)", "experiment": "BP2992 cytokine production from human PBMC", "type": "cell-based", "details": "0.01-1 μg/ml, 24 h, two donors", "method": "PBMC from two human donors (A and B) were treated with BP2992 (0.01-1 μg/ml), After 24 h, the concentrations of TNF-α in supernatants were determined by ELISA."}, "[15]": {"biological_target": "T1, TLR2", "experiment": "BP2992 cytokine production by DC with anti-TLR2 antibody", "type": "cell-based, mice", "details": "with or without anti-TLR2 T2.5 2.5 μg/ml, 24 hours", "method": "After 24 hours IL-6 production was measured by ELISA. […] After 24 hours TNF-α production was measured by ELISA."}}, "data": [{"molecule": "BP1569: full length B. pertussis lipoprotein BP1569, ~40 kDa, TLR2 agonist (protein, listed as Bordetella pertussis) MRMNKRHAGASALMALALLAGCSDVNQLLGNEESVDYKSTRRGDPLSIPPDLTQANNDPRYKAPASGTATYSQFQQQGLQQQASAGQNTNVLPERADMRVERDGDLRWLVIERPPEQLFSKVVDFWTDTGFTVSVNNPQAGIIETDWAENRAKIPESWLRQVLGSVLETAWDSGEREKFRTRVERVNGHTEIYITHNQMLEKRVGSDGGQVQWTHGKEDPGLNAAMLARLMVYLGTDVDAARKLVAQAEAAPQAPKVQSVRAEGAMLVVDESFDRAWRRVGVALDSGGFAVDDRDRSAGEYFVRYVDTDTGAQNEQPGFFSRLFSSDKKAQAPQYRIRLTGSGTQTQVTVLDANGQRDSSATAQRMLSVLKDKMV", "values": [{"measurement": "BP1569-specific IFN-γ by lymph node cells", "setting": "[1]; day 7, re-stimulated with BP1569 2 μg/ml", "value": "induced at significant levels"}, {"measurement": "IFN-γ upon re-stimulation with heat killed B. pertussis", "setting": "[1]; day 7 lymph node cells", "value": "produced IFN-γ"}, {"measurement": "BP1569-induced TNF-α production in the presence of the TLR2 blocking antibody", "setting": "[2]", "value": "completely abrogated"}, {"measurement": "IL-8 production", "setting": "[3]", "value": "increased"}, {"measurement": "BP1569-induced IL-6 production with anti-TLR6 antibody", "setting": "[4]", "value": "little effect"}, {"measurement": "BP1569-induced IL-6 production with TLR1 blocking antibody", "setting": "[5]", "value": "significantly reduced"}, {"measurement": "luciferase activity (NF-κB reporter)", "setting": "[6]", "value": "significant increase"}, {"measurement": "p38 phosphorylation", "setting": "[7]; 15 minutes following stimulation", "value": "enhanced"}, {"measurement": "p38 phosphorylation with anti-TLR2 blocking antibody", "setting": "[7]; T2.5 2.5 μg/ml", "value": "inhibited"}, {"measurement": "serum IL-6", "setting": "[8]", "value": "Significant concentrations"}, {"measurement": "serum IL-12", "setting": "[8]", "value": "Significant concentrations"}, {"measurement": "IL-6 production by DC", "setting": "[9]", "value": "induced robust"}, {"measurement": "IL-12 production by DC", "setting": "[9]", "value": "induced robust"}, {"measurement": "IL-23 production by DC", "setting": "[9]", "value": "induced robust"}, {"measurement": "TNF-α production by DC", "setting": "[9]", "value": "induced robust"}, {"measurement": "surface expression of CD80", "setting": "[10]", "value": "enhanced"}, {"measurement": "surface expression of CD86", "setting": "[10]", "value": "enhanced"}, {"measurement": "surface expression of MHC class II", "setting": "[10]", "value": "enhanced"}, {"measurement": "effect of lipase treatment on induced IL-6 production", "setting": "[11]; 100 ng/ml on DC", "value": "abolished"}, {"measurement": "effect of lipase treatment on induced IL-12p40 production", "setting": "[11]; then DC stimulation", "value": "abolished"}]}, {"molecule": "BP2992: full length B. pertussis lipoprotein BP2992, ~16 kDa (protein, listed as Bordetella pertussis) NYMHSPSVVAGRARRLLAVAAVAGSVAVLAGCANPSASSGVYTYGQAQREQIVRTGTVTGVRPITIQNDKSSGVGLVAGGALGGVAGNAVGGGTGRTIATVGGVILGALAGNAIENRAGKSSGYEITVRLDNGETRVVAQEADVPISVGQRVQVISGAGPTRVTPY", "values": [{"measurement": "ligand activity for TLR2", "setting": "[12]", "value": "immunologically active ligand for TLR2"}, {"measurement": "maturation of dendritic cells (MHC class II, CD80, CD86)", "setting": "[13]; 100 ng/ml", "value": "induces"}, {"measurement": "pro-inflammatory cytokine production by dendritic cells", "setting": "[13]; 50, 100 and 1000 ng/ml", "value": "induces"}, {"measurement": "pro-inflammatory cytokine production (TNF-α) from human PBMC", "setting": "[14]", "value": "induces"}, {"measurement": "TLR2 dependence of pro-inflammatory cytokine production by DCs (IL-6, TNF-α)", "setting": "[15]", "value": "in a TLR2 dependent manner"}]}]}
